# Experimental data from publication PMC5669500, “Scaffolding the cup-shaped double membrane in autophagy” (PLoS Computational Biology, 2017).
# Molecular target: the molecule itself
# Experiment: SEC; ternary complex co-expressed in E. coli, captured on Ni-NTA by His6-Atg29, then Superose 6 10/300GL in 20 mM Tris pH 8, 200 mM NaCl, 0.1 mM TCEP; peak fractions analysed by SDS-PAGE
row,Protein,binding result
1,"Atg17, wild type (natural protein, Saccharomyces cerevisiae, UniProt Q06410 1-417, looked up, Atg17, Saccharomyces cerevisiae; The Atg17 chain of m1; source: E. coli BL21 (DE3), co-expressed with Atg31 and His6-Atg29 from pST39, purified (Ni-NTA, Superose 6)) MNEADVTKFVNNARKTLTDAQLLCSSANLRIVDIKKKLSSWQLSISKLNFLIVGLRQQGKFLYTILKEGIGTKLIQKQWNQAVLVVLVDEMKYWQYEITSKVQRLDGIVNELSISEKDDTDPSKLGDYISRDNVNLLNDKLKEVPVIERQIENIKLQYENMVRKVNKELIDTKLTDVTQKFQSKFGIDNLMETNVAEQFSRELTDLEKDLAEIMNSLTQHFDKTLLLQDKKIDNDEREELFKVVQGDDKELYNIFKTLHEVIDDVDKTILNLGQFLQAKIKEKTELHSEVSEIINDFNRNLEYLLIFKDISNLIDSFKNSCTQDIQTTKELCEFYDNFEESYGNLVLEAKRRKDVANRMKTILKDCEKQLQNLDAQDQEERQNFIAENGTYLPETIWPGKIDDFSSLYTLNYNVKNP",binds
2,"Atg17 mutant M3 (K8D/R14D/K249D) (natural protein, Saccharomyces cerevisiae, UniProt Q06410 1-417, looked up, Atg17, Saccharomyces cerevisiae; The Atg17 chain of m4; source: E. coli BL21 (DE3), co-expressed with Atg31 and His6-Atg29 from pST39, purified (Ni-NTA, Superose 6)) MNEADVTDFVNNADKTLTDAQLLCSSANLRIVDIKKKLSSWQLSISKLNFLIVGLRQQGKFLYTILKEGIGTKLIQKQWNQAVLVVLVDEMKYWQYEITSKVQRLDGIVNELSISEKDDTDPSKLGDYISRDNVNLLNDKLKEVPVIERQIENIKLQYENMVRKVNKELIDTKLTDVTQKFQSKFGIDNLMETNVAEQFSRELTDLEKDLAEIMNSLTQHFDKTLLLQDKKIDNDEREELFKVVQGDDDELYNIFKTLHEVIDDVDKTILNLGQFLQAKIKEKTELHSEVSEIINDFNRNLEYLLIFKDISNLIDSFKNSCTQDIQTTKELCEFYDNFEESYGNLVLEAKRRKDVANRMKTILKDCEKQLQNLDAQDQEERQNFIAENGTYLPETIWPGKIDDFSSLYTLNYNVKNP",binds
3,"Atg17 mutant M2 (K318D/K329D/Y93E/W94E) (natural protein, Saccharomyces cerevisiae, UniProt Q06410 1-417, looked up, Atg17, Saccharomyces cerevisiae; The Atg17 chain of m3; source: E. coli BL21 (DE3), co-expressed with Atg31 and His6-Atg29 from pST39, purified (Ni-NTA, Superose 6)) MNEADVTKFVNNARKTLTDAQLLCSSANLRIVDIKKKLSSWQLSISKLNFLIVGLRQQGKFLYTILKEGIGTKLIQKQWNQAVLVVLVDEMKEEQYEITSKVQRLDGIVNELSISEKDDTDPSKLGDYISRDNVNLLNDKLKEVPVIERQIENIKLQYENMVRKVNKELIDTKLTDVTQKFQSKFGIDNLMETNVAEQFSRELTDLEKDLAEIMNSLTQHFDKTLLLQDKKIDNDEREELFKVVQGDDKELYNIFKTLHEVIDDVDKTILNLGQFLQAKIKEKTELHSEVSEIINDFNRNLEYLLIFKDISNLIDSFDNSCTQDIQTTDELCEFYDNFEESYGNLVLEAKRRKDVANRMKTILKDCEKQLQNLDAQDQEERQNFIAENGTYLPETIWPGKIDDFSSLYTLNYNVKNP",binds
4,"Atg17 mutant M5 (K92D/L141D) (natural protein, Saccharomyces cerevisiae, UniProt Q06410 1-417, looked up, Atg17, Saccharomyces cerevisiae; The Atg17 chain of m6; source: E. coli BL21 (DE3), co-expressed with Atg31 and His6-Atg29 from pST39, purified (Ni-NTA, Superose 6)) MNEADVTKFVNNARKTLTDAQLLCSSANLRIVDIKKKLSSWQLSISKLNFLIVGLRQQGKFLYTILKEGIGTKLIQKQWNQAVLVVLVDEMDYWQYEITSKVQRLDGIVNELSISEKDDTDPSKLGDYISRDNVNLLNDKDKEVPVIERQIENIKLQYENMVRKVNKELIDTKLTDVTQKFQSKFGIDNLMETNVAEQFSRELTDLEKDLAEIMNSLTQHFDKTLLLQDKKIDNDEREELFKVVQGDDKELYNIFKTLHEVIDDVDKTILNLGQFLQAKIKEKTELHSEVSEIINDFNRNLEYLLIFKDISNLIDSFKNSCTQDIQTTKELCEFYDNFEESYGNLVLEAKRRKDVANRMKTILKDCEKQLQNLDAQDQEERQNFIAENGTYLPETIWPGKIDDFSSLYTLNYNVKNP",binds
5,"Atg17 mutant M4 (K164D/K173D/R299D) (natural protein, Saccharomyces cerevisiae, UniProt Q06410 1-417, looked up, Atg17, Saccharomyces cerevisiae; The Atg17 chain of m5; source: E. coli BL21 (DE3), co-expressed with Atg31 and His6-Atg29 from pST39, purified (Ni-NTA, Superose 6)) MNEADVTKFVNNARKTLTDAQLLCSSANLRIVDIKKKLSSWQLSISKLNFLIVGLRQQGKFLYTILKEGIGTKLIQKQWNQAVLVVLVDEMKYWQYEITSKVQRLDGIVNELSISEKDDTDPSKLGDYISRDNVNLLNDKLKEVPVIERQIENIKLQYENMVRDVNKELIDTDLTDVTQKFQSKFGIDNLMETNVAEQFSRELTDLEKDLAEIMNSLTQHFDKTLLLQDKKIDNDEREELFKVVQGDDKELYNIFKTLHEVIDDVDKTILNLGQFLQAKIKEKTELHSEVSEIINDFNDNLEYLLIFKDISNLIDSFKNSCTQDIQTTKELCEFYDNFEESYGNLVLEAKRRKDVANRMKTILKDCEKQLQNLDAQDQEERQNFIAENGTYLPETIWPGKIDDFSSLYTLNYNVKNP",binds
6,"Atg17 mutant M1 (K318D/Q326D/K329D) (natural protein, Saccharomyces cerevisiae, UniProt Q06410 1-417, looked up, Atg17, Saccharomyces cerevisiae; The Atg17 chain of m2; source: E. coli BL21 (DE3), co-expressed with Atg31 and His6-Atg29 from pST39, purified (Ni-NTA, Superose 6)) MNEADVTKFVNNARKTLTDAQLLCSSANLRIVDIKKKLSSWQLSISKLNFLIVGLRQQGKFLYTILKEGIGTKLIQKQWNQAVLVVLVDEMKYWQYEITSKVQRLDGIVNELSISEKDDTDPSKLGDYISRDNVNLLNDKLKEVPVIERQIENIKLQYENMVRKVNKELIDTKLTDVTQKFQSKFGIDNLMETNVAEQFSRELTDLEKDLAEIMNSLTQHFDKTLLLQDKKIDNDEREELFKVVQGDDKELYNIFKTLHEVIDDVDKTILNLGQFLQAKIKEKTELHSEVSEIINDFNRNLEYLLIFKDISNLIDSFDNSCTQDIDTTDELCEFYDNFEESYGNLVLEAKRRKDVANRMKTILKDCEKQLQNLDAQDQEERQNFIAENGTYLPETIWPGKIDDFSSLYTLNYNVKNP",binds
